Test results published in the supplement of paper PMC12764529.

experiment: folding stability dG unfold (combined trypsin and chymotrypsin); higher = more stable
Procedure: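 Folding stability of de novo designed mini-proteins (<80 aa, no Cys; designed by TrROS, TrMRF, ProteinMPNN and the joint model) was measured by cDNA display proteolysis with trypsin and chymotrypsin. Each protease was used at 11 concentrations in a threefold dilution series plus a no-protease condition. K50 was inferred by Bayesian fitting of sequencing counts, and dG unfold was derived against a sequence-predicted unfolded-state K50 (Tsuboyama et al. method). Sequences shown include variable-length N-terminal GS-type padding (SAGGSAGG...) inside a display construct carrying a PA tag. Rows were kept only if the AF2 dimer inter-PAE was >15, to exclude likely homo-oligomers.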

| Sequence | folding stability dG unfold [kcal/mol] |
| --- | --- |
| SAGSEIYEAAKAGKKATVPVETTLTEVTEESVTPLGGPTLKAREVARTTFNAKLTKFDPKTGKITTDLPSAG [r5_5_JUSTAS] | < -1 |
| SAMPLSELEFVEERVFPDPPVRISVYRLPSPGVWVVPVLEPGTGRPRLVELEAADGVLDEEEVRAAVLESAG [r14_948_JUSTAS] | < -1 |
| SAGGSAGGSAGGEIKVRIDEYDPPSGFFRIEPPDGRTRQIPVPPGMNPEDLKGDTVTLKPSAGGSAGGSAGG [r7_296_TrROS] | < -1 |
| SAGKERTWRIYVPKNMPPGRPFEGELELNPNGERDVRISWPGGKTRKIKSPDDIKELAKSGYPIMIEPVSAG [r5_42_TrROS] | < -1 |
| SAGWKIKIYPPNGQPQEIPIEDAKEIAEELAEQGNVQITPDGDIYIPFPMKDPEDGKPHQMYIQIERDKSAG [r5_243_TrROS] | < -1 |
| SAGGSKDKKMPPEQAKQVQVRVEIPIRVYRPGDGGEPHDFPIEIWGPMKSPEEADKEVNDAIDEFFSAGGSA [r2_244_TrROS] | < -1 |
| SAGGSAGGSAGGPDVEKYPFKFPGKKFKIQRNPDDPDSYMISFPPGKTETFPLDDIKPLSAGGSAGGSAGGS [r10_556_TrROS] | < -1 |
| SAGGSAGGSAGGSTKTIMLDSPEKVEELVEEAMEKGDPITIEYHDPGEGKPFEFKFPVKSAGGSAGGSAGGS [r4_188_TrROS] | < -1 |
| SAGASLAPGESAAFTVTTTTTTTESLPLPDGTTVTTTSTTTTTTAHTVTFPAVPVVTMPPDATDPAVRASAG [r5_770_JUSTAS] | < -1 |
| SAGGPAEVKIPIMKMEPPKPERVYDPDDGQERWKMEHQMRMEMIPITIRADDNPEEANDIANDFGITSAGGS [r16_467_TrROS] | < -1 |
| MVISPALLREARRAGISDEFLKKAGDVIIPSEVANPEEVKELLAHPGVKKVYPVPPEDPEKLAAAKVVLPGS [r1_248_TrMRF] | < -1 |
| SAGPNPGEPLTVVTETSTEKVPTSSGRAVPVTTSTASNGTVIEKFPDGKVLVFEPGKGPENKTVLPEVSAGG [r19_199_JUSTAS] | < -1 |
| DFLELPGGWKVTEILEKKRLSDGTVEIKAVVKDPNNPVETEIDVKIPIPEVPEVPVEVRLIPGTGELIGILS [r1_411_JUSTAS] | < -1 |
| SAGGGMDTPLYRTLPPPPVVEKREVWLSGPSKEEAEKKAKEVEEEFKKEGLEVEVKIIPAEEAEKLSSAGGS [r8_210_JUSTAS] | < -1 |
| SAGGSAGGSMVEVVVRPPGGPEYRVSPETSPEEVRARVEAEAGPPPEIEISEEEAKALGVPARSAGGSAGGS [r12_379_JUSTAS] | < -1 |
| SAGGSAGGSVKELAKKAGIKDIDVEPHPNDGWVEIKITMKNPKNGKKREGNILIRDPKDGEPLSAGGSAGGS [r12_133_TrROS] | < -1 |
| SAGGGMMVNLKFESPTSSSTVPLPVVEIRRLPSPEYEEVVVPDGTRYLFNPKTNTLLEEKEVPPLEELSAGG [r13_636_JUSTAS] | < -1 |
| SDEVSRPVDVRYYITLTEPPTSRPRRGPTDELEVESERPVTVTEMPAGQEEAVRAELEPRGVAVSVTPVVSA [r9_1209_JUSTAS] | < -1 |
| SAGGSAGGSAMTSVKRSSGSWSITITTPDSTTTTTKAATEEEVQAEVEELKKPGIKVELSPESAGGSAGGSA [r18_103_JUSTAS] | < -1 |

| Sequence | folding stability dG unfold [kcal/mol] |
| --- | --- |
| SAGGSAGGSMKTVTIEVKRPSPDITLEDIKEELLKKNPEVEEVEVEEYPEEGLYKVKVTIKPKSAGGSAGGS [r20_31_JUSTAS] | < -1 |
| SAGGKITITLPNGAKIEIEEEEVEVDGKTYLVFKAKITNKDGSKYLITVVIDKKTKEIVSISIEKLPSAGGS [r8_492_TrROS_Hall] | > 6 |
| SAGGSAGGSNGNYRIKIKIRKPNGEPKSQHTFNIPSPEQIKESLAQQPGFPPDRIEDVEVGPYSAGGSAGGS [r12_182_TrROS] | < -1 |
| SAGGSAGGSMDDTEEESSSVSRFLENGERYTTRTKTTTRIRPDGTEEVEVEVTTTPLPPDVPLSAGGSAGGS [r12_927_JUSTAS] | < -1 |
| SAGGSAGGSAGSMTVTVLEVVPGVPEVVLRRGDTEIRVPASRYTLERDADTTTLVVPEAASAGGSAGGSAGG [r17_403_JUSTAS] | < -1 |
| DNMDMEPEGYDPDNGHYEWEMRTDNQWTEMTMRPKPRIPIPLEELKNIADYLADQNPDNKEKAEKIAEKLAS [r1_330_TrROS] | < -1 |
| SAGGSPPLVVEEELLSEKTLPEPGTGTVTLTRRTIRDPTADVEWEERFTVTTPPDGSVEVSSTRERLLSAGG [r13_917_JUSTAS] | < -1 |
| SAGGSAGGSMKVRLLIGEEEVEKAIAEGIPKEVMKPEKEKIPSSTDPRFAGNPEPVLLYYIGESAGGSAGGS [r12_78_JUSTAS] | < -1 |
| SAGGSAGGSAGMMTLKTGSVTIVRPVPAEEAPAPPEVPGAEELTRTEVVKTEVELLPAELLSAGGSAGGSAG [r3_488_JUSTAS] | < -1 |
| SAGGSAKITIEPVKDQYRIEIKIPVFDPNGKKDPIEIPMYMPPDDPERMKDQILDWAREKNPDLIISAGGSA [r15_1050_TrROS] | < -1 |
| SAGGSAGGSAPDMYRIRAKFPDGKPFPIEFNPEDGQIEVWDGNKEQTIPPGKPIKIDKIEPVSAGGSAGGSA [r18_144_TrROS] | < -1 |
| SAGGSAGGSAGGTAEEIRDIFEEHGMEVEVEVTPDNVTIQYEMPNGKKREFRIPADDLKSAGGSAGGSAGGS [r10_1029_TrROS] | < -1 |
| SAGGGSMVETRTLEVEEVEDGTVTLSRTLYPGGLVRLTRTRVPPADPSVAEEVETELVYVSPEEAAASAGGS [r16_161_JUSTAS] | < -1 |
| SAGGTVREIKEILKEKGWPVKNVEPGPNGNYTVQLRRPRGKPFKINIPSDNPEEQQALREAIPPDFVSAGGS [r16_821_TrROS] | < -1 |
| SAGGSAGGSRTIHIPHNAMDKMPPSFEKKIRELADELNIDIEHNNNWMTIPVKGLTEEAIKEFSAGGSAGGS [r12_945_TrROS] | < -1 |
| SAGGSAGGSISPEAAKEGPLTIEVSWMHPDGRTEEEEFPIGQPIKIPPDFKDRPPQITSIRPRSAGGSAGGS [r12_161_TrROS] | < -1 |
| SAGGSAGGSAGGSVTVSLSELKKILKEKGNPGTVEEILEDPNVSVSKDPNSSNEIVTIPGSAGGSAGGSAGG [r7_180_JUSTAS] | < -1 |
| SAGGSAKIVIPGMSPSMIRHAIKEGVKKIHIVWPNPEQAKGFKKELEKEDGIPIKVVPAEEAKKLESAGGSA [r15_243_TrROS] | < -1 |
| SAGAAKEVFHETFPHPAGGPVELARNPGLDWVVLYNAGTGEPTVVPVAADETLVFPAAPGGASTFAVTSAGG [r19_118_TrMRF] | < -1 |

| Sequence | folding stability dG unfold [kcal/mol] |
| --- | --- |
| SAGGIREIADELGMPPGDKVTIDIERPRDGKPQTQEIEFPPDNVEDILDQMGIPPDQMKITKLKVDKDSAGG [r13_681_TrROS] | < -1 |
| SAGGSVDVDEEEAEKLIEEALKKGLEVTITARLPDGGVRVLKYEGPDRKRTVIEELPVPPSPLNPALLSAGG [r13_839_JUSTAS] | < -1 |
| KTYYLKAENAPFEEIVEKAREALEADPEEGAEIVIEVPGNPELLEKLDFDEIIPYDIPERPLYIVRAKAPPS [r1_467_TrMRF] | < -1 |
| SAGGSAGGSAGGNTRYIPMPPDDIEELIEEAKDEGIDNVIIHNPENGRWIKITGDKIKPVSAGGSAGGSAGG [r7_564_TrROS] | < -1 |
| SAGGSAGGSAGPTTSSRTVKPGEVEEVKEAIEAQGVSVTVTLDPSTGTYTVGVTNPGVLGSAGGSAGGSAGG [r11_1043_JUSTAS] | < -1 |
| SAGAPVVEKKRTIPSPLGAPAYLVFVPEEDRIVFTRPGSGEPVELSVPPDSEVEVPAPPSGSLTYRWESAGG [r19_118_JUSTAS] | < -1 |
| SAGGSAGGSAGGGKVKSIELNPETDLALVEIEPEDGGTATVVLPLDLLENIPLDGTLTISAGGSAGGSAGGS [r10_255_TrMRF] | < -1 |
| SAGGSAGGSAGGSGVRLRFPADYPELVEKLAKAFGLKPKSFNPDTGEVDIGNEPGAKIVSAGGSAGGSAGGS [r4_3_TrMRF] | < -1 |
| SAGGSAGGSDKFKIDNIYPDPDMWVYRIKFPKGKSHTFPIPEENIDEFAEDDGFNVEPLGPVPSAGGSAGGS [r12_676_TrROS] | < -1 |
| SAGGSAGGSAMLVELEAGRVIEVPDATPEETRERVRAAVPPEVADEVRIVRAYDPERPVELSAGGSAGGSAG [r3_340_JUSTAS] | < -1 |
| SAGGITLEELRGMPPEQLADWLVQEAQEQNKKEGNPNRPVTVEFEYGDQPLKIEITPNGKIEKIELDSAGGS [r16_431_TrROS] | < -1 |
| SAGGKAELAANPGVVRVEVELVDPSGPVALPTREYLYPEGDPAALRAAIEAEIPADLAVARVTFTRLGSAGG [r13_849_JUSTAS] | < -1 |
| SIEITFRHDNYRVPVKIDPDDPKIKIEVYPDPENGEMQPLTEEDMENFAQEIADELREQRKQQRKEGKPPSA [r9_368_TrROS] | < -1 |
| SAGGATTPVTVPTTSEEEVEAIIEELNKEGLSDLIPKGGKPIPPPDSLRLVPLVITTTPGSGKTTVTLSAGG [r13_174_JUSTAS] | < -1 |
| SAGGPAEFPEGPGVVVGYTYPPDGKPAKWAIPFPDATPEEARERLAKFAEALPIPGAKVVIDDIKPGPSAGG [r13_29_TrMRF] | < -1 |
| SAGGSAGGSVVPIEYDEDGMLKIEHRNNDKKREHTIPADDADEMPPDFLKDLPPDKIDEITPYSAGGSAGGS [r12_793_TrROS] | < -1 |
| SAGGSAGGSAGGMVTNEVIEVDPANPEEVIAEIKAKGKAEAKKIEKLEGDKMKVYVKTSLSAGGSAGGSAGG [r7_589_JUSTAS] | < -1 |
| SAGGSAGGSATLEQIKEAIKDSPPGEPARIPFPNGYTIRIDMRYDKEENKIDDFDIEIEPPNSAGGSAGGSA [r18_202_TrROS] | < -1 |
| SAGGSGNPNAPVPYIPKGYKTVPIPLKGDPNASEEELKKKLEEAKEKIKKEIDPTPDGIPIEINEGSAGGSA [r2_149_JUSTAS] | < -1 |
